Here are results for one molecule from patent publication US20090298769A1 (CLEVELAND CLINIC FOUNDATION, published 2009).

This assay deals with T1, VEGFR-2 of human endothelial cells (HUVEC) (human, UniProt P35968 20-1356).
T1 construct: whole, on cells; Endogenous, detected in cell lysates or by staining; also called VEGF receptor-2
In words: co-immunoprecipitation (anti-VEGFR-2 IP, anti-integrin β5 blot), HUVEC with or without VEGF.

T1 sequence (P35968 20-1356): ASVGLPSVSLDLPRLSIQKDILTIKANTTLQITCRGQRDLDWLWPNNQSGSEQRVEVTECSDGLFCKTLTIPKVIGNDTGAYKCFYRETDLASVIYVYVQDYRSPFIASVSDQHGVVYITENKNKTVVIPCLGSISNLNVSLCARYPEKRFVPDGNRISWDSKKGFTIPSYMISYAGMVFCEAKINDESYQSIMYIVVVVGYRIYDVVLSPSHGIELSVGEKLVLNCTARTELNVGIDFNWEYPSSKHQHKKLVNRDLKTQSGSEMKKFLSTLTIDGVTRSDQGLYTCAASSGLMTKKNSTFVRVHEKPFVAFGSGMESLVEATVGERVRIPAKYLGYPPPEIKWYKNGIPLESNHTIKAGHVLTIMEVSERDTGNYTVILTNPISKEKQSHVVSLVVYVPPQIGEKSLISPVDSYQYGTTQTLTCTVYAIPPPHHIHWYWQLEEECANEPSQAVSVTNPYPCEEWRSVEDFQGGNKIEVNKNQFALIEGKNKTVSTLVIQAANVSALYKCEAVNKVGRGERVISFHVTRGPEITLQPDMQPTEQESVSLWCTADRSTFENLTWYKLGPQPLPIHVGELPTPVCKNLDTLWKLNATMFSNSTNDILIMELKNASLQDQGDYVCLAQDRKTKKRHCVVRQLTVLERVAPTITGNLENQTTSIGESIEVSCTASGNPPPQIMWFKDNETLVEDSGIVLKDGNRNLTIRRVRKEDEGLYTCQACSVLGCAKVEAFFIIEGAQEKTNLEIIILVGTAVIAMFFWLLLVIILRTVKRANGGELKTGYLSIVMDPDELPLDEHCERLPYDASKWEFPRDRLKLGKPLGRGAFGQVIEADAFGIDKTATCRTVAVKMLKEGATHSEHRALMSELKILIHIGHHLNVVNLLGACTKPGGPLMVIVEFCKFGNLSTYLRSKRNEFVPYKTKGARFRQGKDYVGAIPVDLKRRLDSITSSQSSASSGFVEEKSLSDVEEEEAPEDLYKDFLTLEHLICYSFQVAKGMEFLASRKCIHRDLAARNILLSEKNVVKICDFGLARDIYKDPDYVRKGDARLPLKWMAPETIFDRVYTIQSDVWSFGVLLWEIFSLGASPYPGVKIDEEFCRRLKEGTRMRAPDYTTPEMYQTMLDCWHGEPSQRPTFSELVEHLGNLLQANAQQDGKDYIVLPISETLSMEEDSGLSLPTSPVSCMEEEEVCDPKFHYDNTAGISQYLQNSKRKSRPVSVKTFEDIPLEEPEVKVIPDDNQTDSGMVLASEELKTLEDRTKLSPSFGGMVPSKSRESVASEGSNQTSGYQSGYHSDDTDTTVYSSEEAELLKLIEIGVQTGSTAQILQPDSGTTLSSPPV

B1: β5 integrin of HUVEC (receptor, human, UniProt P18084 24-799, looked up)
chain: GLNICTSGSATSCEECLLIHPKCAWCSKEDFGSPRSITSRCDLRANLVKNGCGGEIESPASSFHVLRSLPLSSKGSGSAGWDVIQMTPQEIAVNLRPGDKTTFQLQVRQVEDYPVDLYYLMDLSLSMKDDLDNIRSLGTKLAEEMRKLTSNFRLGFGSFVDKDISPFSYTAPRYQTNPCIGYKLFPNCVPSFGFRHLLPLTDRVDSFNEEVRKQRVSRNRDAPEGGFDAVLQAAVCKEKIGWRKDALHLLVFTTDDVPHIALDGKLGGLVQPHDGQCHLNEANEYTASNQMDYPSLALLGEKLAENNINLIFAVTKNHYMLYKNFTALIPGTTVEILDGDSKNIIQLIINAYNSIRSKVELSVWDQPEDLNLFFTATCQDGVSYPGQRKCEGLKIGDTASFEVSLEARSCPSRHTEHVFALRPVGFRDSLEVGVTYNCTCGCSVGLEPNSARCNGSGTYVCGLCECSPGYLGTRCECQDGENQSVYQNLCREAEGKPLCSGRGDCSCNQCSCFESEFGKIYGPFCECDNFSCARNKGVLCSGHGECHCGECKCHAGYIGDNCNCSTDISTCRGRDGQICSERGHCLCGQCQCTEPGAFGEMCEKCPTCPDACSTKRDCVECLLLHSGKPDNQTCHSLCRDEVITWVDTIVKDDQEAVLCFYKTAKDCVMMFTYVELPSGKSNLTVLREPECGNTPNAMTILLAVVGSILLVGLALLAIWKLLVTIHDRREFAKFQSERSRARYEMASNPLYRKPISTHTVDFTFNKFNKSYNGTVD
notes: whole, on cells; also called integrin β5
As for B1, the binding result was “no binding”.
